# Data taken from the supplement of paper PMC9112550, “Optimization of the antimicrobial peptide Bac7 by deep mutational scanning” (BMC Biology, 2022).
# Test system: Escherichia coli TOP10
# Test: shrunken log2 fold change of peptide-encoding DNA abundance (4.5 h post-induction vs induction); higher = less antimicrobial activity (less host growth inhibition)
# Details: time post-induction: 4.5 h; library: site-saturation at positions 5, 18, 19, 20
# 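Further: peptides expressed intracellularly from a pBAD plasmid library in pooled LB shake-flask culture, induced with 0.3% L-arabinose, DNA abundance read by NGS, three biological replicates, DESeq2 with apeglm shrinkage.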
row,Sequence,shrunken log2 fold change
1,RRIRGRPPRLPRPRPRPDFRPRP,-0.043
2,RRIRVRPPRLPRPRPRPHCIPRP,-0.551
3,RRIRDRPPRLPRPRPRPCWSPRP,-0.00281
4,RRIRTRPPRLPRPRPRPISMPRP,-0.262
5,RRIRCRPPRLPRPRPRPDPEPRP,-0.0407
6,RRIRYRPPRLPRPRPRPRNEPRP,-0.0133
7,RRIRMRPPRLPRPRPRPTSIPRP,-0.0517
8,RRIRGRPPRLPRPRPRPENKPRP,0.32
9,RRIRKRPPRLPRPRPRPRLLPRP,0.517
10,RRIRGRPPRLPRPRPRPVRPPRP,0.994
11,RRIRDRPPRLPRPRPRPMHEPRP,0.0698
12,RRIRQRPPRLPRPRPRPSKAPRP,0.356
13,RRIRTRPPRLPRPRPRPPMTPRP,0.172
14,RRIRLRPPRLPRPRPRPCWQPRP,0.00378
15,RRIRFRPPRLPRPRPRPHQIPRP,-0.387
16,RRIRHRPPRLPRPRPRPERPPRP,-0.0369
17,RRIRIRPPRLPRPRPRPAFHPRP,-0.2
18,RRIRIRPPRLPRPRPRPVRWPRP,0.474
19,RRIRHRPPRLPRPRPRPVDRPRP,-0.0926
20,RRIRPRPPRLPRPRPRPRMPPRP,0.249
21,RRIRERPPRLPRPRPRPENQPRP,-0.174
22,RRIRERPPRLPRPRPRPDGTPRP,0.0123

row,Sequence,shrunken log2 fold change
1,RRIRMRPPRLPRPRPRPWGCPRP,0.311
2,RRIRKRPPRLPRPRPRPWFEPRP,0.0346
3,RRIRQRPPRLPRPRPRPYIEPRP,-0.45
4,RRIRARPPRLPRPRPRPSNIPRP,-0.447
5,RRIRWRPPRLPRPRPRPPPRPRP,1.14
6,RRIRWRPPRLPRPRPRPQDSPRP,0.0627
7,RRIRTRPPRLPRPRPRPPEDPRP,-0.0168
8,RRIRWRPPRLPRPRPRPPAGPRP,0.83
9,RRIRHRPPRLPRPRPRPTKCPRP,-0.0314
10,RRIRDRPPRLPRPRPRPFHIPRP,-0.254
11,RRIRIRPPRLPRPRPRPQTVPRP,-0.271
12,RRIRARPPRLPRPRPRPFKLPRP,-0.39
13,RRIRERPPRLPRPRPRPSMTPRP,0.0627
14,RRIRRRPPRLPRPRPRPDLPPRP,0.0159
15,RRIRKRPPRLPRPRPRPSAWPRP,0.534
16,RRIRSRPPRLPRPRPRPRMVPRP,0.174
17,RRIRTRPPRLPRPRPRPRAVPRP,0.617
18,RRIRYRPPRLPRPRPRPIFSPRP,-1.43
19,RRIRQRPPRLPRPRPRPNGYPRP,-0.121
20,RRIRCRPPRLPRPRPRPNKVPRP,-0.142
21,RRIRLRPPRLPRPRPRPDWEPRP,0.0332
22,RRIRVRPPRLPRPRPRPNLWPRP,-0.0401

row,Sequence,shrunken log2 fold change
1,RRIRSRPPRLPRPRPRPSGRPRP,0.185
2,RRIRDRPPRLPRPRPRPKPTPRP,0.0678
3,RRIRHRPPRLPRPRPRPSTKPRP,-0.383
4,RRIRPRPPRLPRPRPRPFQTPRP,-0.242
5,RRIRQRPPRLPRPRPRPCGRPRP,0.411
6,RRIRWRPPRLPRPRPRPEMYPRP,0.144
7,RRIRYRPPRLPRPRPRPDTSPRP,-0.0824
8,RRIRCRPPRLPRPRPRPNEIPRP,-0.0995
9,RRIRRRPPRLPRPRPRPRFGPRP,0.438
10,RRIRHRPPRLPRPRPRPRPVPRP,0.22
11,RRIRIRPPRLPRPRPRPNSCPRP,-0.184
12,RRIRSRPPRLPRPRPRPPHWPRP,0.5
13,RRIRMRPPRLPRPRPRPQTTPRP,0.634
14,RRIRVRPPRLPRPRPRPASHPRP,0.0857
15,RRIRLRPPRLPRPRPRPHVMPRP,-0.266
16,RRIRERPPRLPRPRPRPWFAPRP,-0.276
17,RRIRCRPPRLPRPRPRPMGLPRP,-0.0216
18,RRIRQRPPRLPRPRPRPCAQPRP,0.308
19,RRIRKRPPRLPRPRPRPIIAPRP,-0.0395
20,RRIRDRPPRLPRPRPRPTHQPRP,0.0642
21,RRIRTRPPRLPRPRPRPLHFPRP,-0.189
22,RRIRTRPPRLPRPRPRPEMRPRP,0.825

row,Sequence,shrunken log2 fold change
1,RRIRTRPPRLPRPRPRPWSPPRP,-0.37
2,RRIRIRPPRLPRPRPRPGSQPRP,-0.0143
3,RRIRKRPPRLPRPRPRPKGSPRP,0.436
4,RRIRPRPPRLPRPRPRPLSCPRP,-0.0219
5,RRIRCRPPRLPRPRPRPHDLPRP,-0.46
6,RRIRDRPPRLPRPRPRPENNPRP,0.264
7,RRIRVRPPRLPRPRPRPKQIPRP,-0.0455
8,RRIRMRPPRLPRPRPRPTCRPRP,0.32
9,RRIRTRPPRLPRPRPRPYEIPRP,-0.453
10,RRIRNRPPRLPRPRPRPQLSPRP,-0.2
11,RRIRFRPPRLPRPRPRPDVMPRP,-0.0908
12,RRIRRRPPRLPRPRPRPKDAPRP,0.0371
13,RRIRHRPPRLPRPRPRPMKMPRP,0.043
14,RRIRARPPRLPRPRPRPGDAPRP,0.711
15,RRIRTRPPRLPRPRPRPDHWPRP,0.0335
16,RRIRRRPPRLPRPRPRPRSPPRP,0.49
17,RRIRRRPPRLPRPRPRPMGHPRP,0.129
18,RRIRSRPPRLPRPRPRPAYVPRP,-0.137
19,RRIRVRPPRLPRPRPRPHNVPRP,-0.859
20,RRIRQRPPRLPRPRPRPRYVPRP,-0.215
21,RRIRHRPPRLPRPRPRPHWCPRP,-0.0566
22,RRIRRRPPRLPRPRPRPNNGPRP,-0.277

row,Sequence,shrunken log2 fold change
1,RRIRKRPPRLPRPRPRPDQCPRP,0.0219
2,RRIRYRPPRLPRPRPRPNCAPRP,-0.214
3,RRIRWRPPRLPRPRPRPHNDPRP,-0.324
4,RRIRQRPPRLPRPRPRPVWTPRP,0.0102
5,RRIRWRPPRLPRPRPRPWFWPRP,0.123
6,RRIRQRPPRLPRPRPRPKFNPRP,-0.271
7,RRIRWRPPRLPRPRPRPMQLPRP,0.12
8,RRIRNRPPRLPRPRPRPYDDPRP,0.00769
9,RRIRDRPPRLPRPRPRPRRKPRP,0.233
10,RRIRDRPPRLPRPRPRPEFFPRP,0.896
11,RRIRYRPPRLPRPRPRPCISPRP,0.0212
12,RRIRMRPPRLPRPRPRPDRTPRP,0.52
13,RRIRMRPPRLPRPRPRPIKWPRP,-0.00876
14,RRIRTRPPRLPRPRPRPQWYPRP,-0.524
15,RRIRTRPPRLPRPRPRPPSCPRP,0.35
16,RRIRERPPRLPRPRPRPFWRPRP,0.0935
17,RRIRKRPPRLPRPRPRPERFPRP,-0.0391
18,RRIRIRPPRLPRPRPRPYIQPRP,-1.75
19,RRIRSRPPRLPRPRPRPLVNPRP,-0.138
20,RRIRYRPPRLPRPRPRPIFGPRP,-0.281
21,RRIRDRPPRLPRPRPRPGDIPRP,-0.0568
